Measured values published in article PMC2852888.
Where two headings read alike, the source gives them in different places.

Columns and labels:
[1] = biological target: Max b/HLH/Z domain (amino acids 22-113) (UniProt P61244); assay: fluorescence polarisation
[2] = biological target: Max b/HLH/Z domain (amino acids 22-113) (UniProt P61244); assay: fluorescence polarisation; remark: listed apart in the source
[3] = biological target: Max b/HLH/Z domain (amino acids 22-113) (UniProt P61244); assay: fluorescence polarisation; remark: listed apart in the source
[4] = biological target: Max b/HLH/Z domain (amino acids 22-113) (UniProt P61244); assay: fluorescence polarisation; remark: listed apart in the source
[5] = biological target: T1, Max b/HLH/Z (UniProt P61244 22-113); assay: stopped-flow fluorescence anisotropy
[6] = biological target: T2, c-Myc b/HLH/Z;Max b/HLH/Z (;, UniProt P01106-1;P61244 347-439;22-113, |); assay: stopped-flow fluorescence anisotropy
[7] = biological target: T3, Mad1;Max b/HLH/Z (;, UniProt Q05195;P61244 1-221;22-113, |); assay: stopped-flow fluorescence anisotropy
[8] = biological target: T3, Mad1;Max b/HLH/Z; assay: stopped-flow fluorescence anisotropy; remark: listed apart in the source
[9] = biological target: T1, Max b/HLH/Z; assay: stopped-flow fluorescence anisotropy; remark: listed apart in the source
[10] = biological target: T2, c-Myc b/HLH/Z;Max b/HLH/Z; assay: stopped-flow fluorescence anisotropy; remark: listed apart in the source
[11] = biological target: Max b/HLH/Z monomer (UniProt P61244 22-113); assay: stopped-flow fluorescence anisotropy
Chain of Max b/HLH/Z monomer (P61244 22-113): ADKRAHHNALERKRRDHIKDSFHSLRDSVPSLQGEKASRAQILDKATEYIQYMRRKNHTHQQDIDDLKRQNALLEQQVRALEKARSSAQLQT

Chain of Max b/HLH/Z domain (amino acids 22-113) (P61244 22-113): as above
T2 sequence (P01106 362-454, chain 1 of 2): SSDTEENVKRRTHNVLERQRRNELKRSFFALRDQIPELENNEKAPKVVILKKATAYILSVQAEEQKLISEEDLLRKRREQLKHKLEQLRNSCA
T2 sequence (P61244 22-113, chain 2 of 2): as the sequence (P61244 22-113) above
T1 sequence (P61244 22-113): as above
T3 sequence (Q05195 whole entry, chain 1 of 2): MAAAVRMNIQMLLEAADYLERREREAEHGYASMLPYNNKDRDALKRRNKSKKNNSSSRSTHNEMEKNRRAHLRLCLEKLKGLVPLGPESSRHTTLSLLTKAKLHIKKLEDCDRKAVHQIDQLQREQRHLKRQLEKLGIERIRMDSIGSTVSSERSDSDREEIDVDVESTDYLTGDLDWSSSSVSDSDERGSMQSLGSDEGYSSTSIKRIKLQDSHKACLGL
T3 sequence (P61244 22-113, chain 2 of 2): as the sequence (P61244 22-113) above

In the case of “c-Myc b/HLH/Z domain (amino acids 347-439) (domain or fragment)”, the kobs (association rate constant) [1] is reported as 90 s⁻¹, the kobs (association rate constant) [2] is reported as 109 s⁻¹ and the kobs (association rate constant) [3] is reported as 67 s⁻¹. For the same molecule, the association rate constant with the Max·DNA complex [4] was 126 s⁻¹, the k2 (forward rate constant of the second step, from the intercept) [4] was 91 s⁻¹ and the kobs (association rate constant) [4] was 118 s⁻¹.

B1: MLP E-box 16-mer, FITC-labelled (dsDNA)
DNA 1: TAGGCCACGTGACCGG
DNA 2: CCGGTCACGTGGCCTA
B1: binds [5]; binds [6]; binds [7].

B2: MLP E-box 16-mer, label not stated (dsDNA)
DNA 1: TAGGCCACGTGACCGG
DNA 2: CCGGTCACGTGGCCTA
B2: binds [8]; binds [9]; binds [10]. B2: binds [11].
